Measurements published in patent US20240076386A1 (Pfizer, published 2024).

Columns and labels:
[1] = target: T1, recombinant histidine-tagged human E-selectin (Sino Biologicals; 13025-H08H) (human, UniProt P16581 22-556); experiment: direct binding ELISA, soluble recombinant protein
T1 construct: also called recombinant human E-selectin; soluble recombinant human E-selectin
T1 sequence (looked up): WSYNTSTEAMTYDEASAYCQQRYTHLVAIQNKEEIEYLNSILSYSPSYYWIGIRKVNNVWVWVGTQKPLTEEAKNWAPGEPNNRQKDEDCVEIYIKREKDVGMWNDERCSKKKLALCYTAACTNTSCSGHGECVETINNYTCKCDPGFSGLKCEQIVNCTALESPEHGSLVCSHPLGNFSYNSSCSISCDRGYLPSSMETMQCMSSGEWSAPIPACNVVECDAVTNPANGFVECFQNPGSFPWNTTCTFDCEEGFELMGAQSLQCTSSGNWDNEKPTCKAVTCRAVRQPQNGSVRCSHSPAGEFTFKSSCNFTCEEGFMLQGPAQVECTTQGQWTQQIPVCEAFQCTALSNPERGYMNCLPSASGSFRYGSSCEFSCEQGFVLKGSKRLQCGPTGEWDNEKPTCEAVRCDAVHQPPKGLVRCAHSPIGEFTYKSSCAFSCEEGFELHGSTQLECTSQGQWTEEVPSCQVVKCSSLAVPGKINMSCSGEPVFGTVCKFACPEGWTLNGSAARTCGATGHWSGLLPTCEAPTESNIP
Procedure: (§1) Recombinant histidine tagged human P-, E- or L-selectin (Sino Biologicals), mouse E-selectin (Sino Biologicals), rat E-selectin (Sino Biologicals) and Cynomolgus monkey E-selectin (Sino Biologicals) stock solutions were prepared to a final concentration of 1 μg/mL in phosphate buffered saline without calcium and magnesium. Controls included an L-selectin directed antibody (BioLegend; 304811) or P-selectin directed antibody or a negative control IgG. One hundred μL per well of the diluted recombinant selectin proteins were added into a Ni-NTA HisSorb 96 well plate (Qiagen; 35061). Plates were incubated on an orbital shaker at room temperature for 2 hours. Following the incubation, the plates were washed 3 times with 200 μL of wash buffer (50 mM TRIS [trisaminomethane]; 150 mM sodium chloride; 0.05% polysorbate 20, pH 7.4). […] Anti L-selectin and anti-rat-E-selectin antibodies were detected using 1 to 25000 dilution of Peroxidase-conjugated AffiniPure Goat Anti-Mouse IgG (H+L); (Jackson ImnnunoResearch Lab).
(§2) Plates were washed and 100 μL per well of 1-Step Ultra TMB substrate (Thermo Scientific) was added and incubated for 5 minutes at room temperature. Reactions were stopped with 100 μL of 2 M sulfuric acid and absorbance read at 450 nm (Spectramax M5e).

[2] = target: T2, recombinant histidine-tagged cynomolgus monkey E-selectin (Sino Biologicals; 190169-C08H) (cynomolgus monkey, UniProt A0A2K5U7H9 22-554); experiment: direct binding ELISA, soluble recombinant protein
T2 construct: also called recombinant cynomolgus monkey E-selectin
T2 sequence: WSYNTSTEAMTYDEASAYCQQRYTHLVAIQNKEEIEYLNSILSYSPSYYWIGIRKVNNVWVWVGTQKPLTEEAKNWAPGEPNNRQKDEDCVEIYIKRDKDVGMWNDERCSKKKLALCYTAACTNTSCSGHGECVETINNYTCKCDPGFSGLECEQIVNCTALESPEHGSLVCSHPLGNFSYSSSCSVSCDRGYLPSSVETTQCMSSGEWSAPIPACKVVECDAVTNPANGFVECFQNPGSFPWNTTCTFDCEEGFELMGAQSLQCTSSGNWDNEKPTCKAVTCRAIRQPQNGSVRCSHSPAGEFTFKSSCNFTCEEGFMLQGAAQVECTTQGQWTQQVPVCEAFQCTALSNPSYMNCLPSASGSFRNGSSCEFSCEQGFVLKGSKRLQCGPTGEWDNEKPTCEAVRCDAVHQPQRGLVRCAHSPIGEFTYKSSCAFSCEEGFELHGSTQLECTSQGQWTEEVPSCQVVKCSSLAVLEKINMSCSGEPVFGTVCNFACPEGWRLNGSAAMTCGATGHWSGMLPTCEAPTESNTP
Procedure: as §1, §2

[3] = target: T3, cynomolgus monkey E-selectin, cell-surface expressed (cynomolgus monkey, UniProt P16581 22-610 (human entry)); experiment: flow cytometry, CHO cells, 6 experiments
T3 construct: also called CHO-cynomolgus monkey E-selectin cells; cynomolgus monkey CHO-E
T3 chain: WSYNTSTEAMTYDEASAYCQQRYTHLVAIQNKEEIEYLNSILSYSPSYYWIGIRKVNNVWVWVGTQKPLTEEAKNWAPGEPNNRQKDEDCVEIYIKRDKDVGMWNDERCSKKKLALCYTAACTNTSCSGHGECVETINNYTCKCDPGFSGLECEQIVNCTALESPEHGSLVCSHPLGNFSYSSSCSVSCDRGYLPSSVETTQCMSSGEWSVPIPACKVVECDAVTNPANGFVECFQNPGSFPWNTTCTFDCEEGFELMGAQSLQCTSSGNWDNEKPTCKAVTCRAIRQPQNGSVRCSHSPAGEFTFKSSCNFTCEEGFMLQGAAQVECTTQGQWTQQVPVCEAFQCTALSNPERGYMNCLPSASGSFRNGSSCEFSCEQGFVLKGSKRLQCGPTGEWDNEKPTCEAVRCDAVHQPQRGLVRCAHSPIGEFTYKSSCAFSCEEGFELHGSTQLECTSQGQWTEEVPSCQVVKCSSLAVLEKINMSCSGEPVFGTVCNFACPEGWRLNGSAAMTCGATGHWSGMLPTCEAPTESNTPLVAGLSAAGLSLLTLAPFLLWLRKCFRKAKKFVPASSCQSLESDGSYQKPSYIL
Procedure: Binding studies with CHO cells were performed in duplicate using two rows of a 96-well round bottom plate, whereas, binding studies with primary endothelial cells were performed in a single row of a 96-well V-bottom plate. The plates were centrifuged at 300×g for 2 minutes at 4° C. and the cells were resuspended and blocked by incubation in the CHO buffer for 10 minutes on wet ice. After incubation, the cells were centrifuged at 300×g for 2 minutes at 4° C. to remove the buffer. […] After incubation with the antibody, the cells were washed three times by centrifugation at 300×g for 1 minute at 4° C. and resuspended in cold CHO buffer. The washed cells were resuspended and incubated with 100 μL of 1:1000 dilution of AlexaFluor647-conjugated goat anti-human F(ab′)₂ Fragment (Fcγ fragment specific antibody, [Jackson Innnnunoresearch, 109-606-170] for 45 minutes (CHO cells) or 30 minutes (endothelial cells) on wet ice. The cells were washed three or four times prior to resuspension in CHO buffer for flow cytometric analysis. A Becton Dickinson LSRFortessa instrument using 640 nanometer laser line was used to acquire cell fluorescence data. Geometric mean fluorescence of cells was analyzed by FlowJo software package (FlowJo, LLC) and plotted against antibody concentration. […]

- EC50 [1]: 0.085 to 0.12 nM
- EC50 [2]: 0.071 to 0.093 nM
- EC50 [3]: 0.75 to 1.37 nM
B1: optimized anti-E-selectin antibody 1444 (antibody, human IgG1, kappa, V domains shown)
VH: EVQLVESGGGLVQPGGSLRLSCAASGYAIRSAYMHWVRQAPGKGLEWVARIDPANGNTIYVDSVTGRFTISADNAKNSAYLQMNSLRAEDTAVYYCAMDLYSTSEYWGQGTLVTVSS
VL: DIQMTQSPSSLSASVGDRVTITCKTSQNIERYLNWYQQKPGKAPKLLIYAASSLQSGVPSRFSGSGSGTDFTLTISSLQPEDFATYFCLQDNAWPLTFGQGTKVEIKR
notes: effector-null human IgG1, kappa
